From PMC10226595 (The Plant Cell, 2023)

Target: the molecule itself
Experiment: single-molecule pull-down

Row | Protein | stoichiometry N
1 | PHB-SDmut, YFP-tagged (PHB with mutated START domain) (natural protein) MMMVHSMSRDMMNRESPDKGLDSGKYVRYTPEQVEALERVYTECPKPSSLRRQQLIRECPILSNIEPKQIKVWFQNRRCREKQRKEAARLQTVNRKLNAMNKLLMEENDRLQKQVSNLVYENGHMKHQLHTASGTTTDNSCESVVVSGQQHQQQNPNPQHQQRDANNPAGLLSIAEEALAEFLSKATGTAVDWVQMIGMKPGPDSIGIVAISRNCSGIAARACGLVSLEPMKVAEILKDRPSWLRDCRSVDTLSVIPAGNGGTIELIYTQMYAPTTLAAAGAVVGAGYSTCLEDGSYVVCERSLTSATGGPTGPPSSNFVVAAGVPSGFLIRPCDGGGSILHIVDHVDLDAWSVPEVMRPLYESSKILAQKMTVAALRHVRQIAQETSGEVQYGGGRQPAVLRTFSQRLCRGFNDAVNGFVDDGWSPMGSDGAEDVTVMINLSPGKFGGSQYGNSFLPSFGSGVLCAKASMLLQNVPPAVLVRFLREHRSEWADYGVDAYAAASLRASPFAVPCARAGGFPSNQVILPLAQTVEHEESLEVVRLEGHAYSPEDMGLARDMYLLQLCSGVDENVVGGCAQLVFAPIDESFADDAPLLPSGFRIIPLEQKSTPNGASANRTLDLASALEGSTRQAGEADPNGCNFRSVLTIAFQFTFDNHSRDSVASMARQYVRSIVGSIQRVALAIAPRPGSNISPISVPTSPEALTLVRWISRSYSLHTGADLFGSDSQTSGDTLLHQLWNHSDAILCCSLKTNASPVFTFANQTGLDMLETTLVALQDIMLDKTLDEPGRKALCSEFPKIMQQGYAHLPAGVCASSMGRMVSYEQATVWKVLEDDESNHCLAFMFVNWSFV | 2
2 | PHB-Delta, YFP-tagged (PHB with the START domain replaced by the 21-nt miR166 recognition site) (natural protein) MMMVHSMSRDMMNRESPDKGLDSGKYVRYTPEQVEALERVYTECPKPSSLRRQQLIRECPILSNIEPKQIKVWFQNRRCREKQRKEAARLQTVNRKLNAMNKLLMEENDRLQKQVSNLVYENGHMKHQLHTASGTTTDNSCESVVVSGQQHQQQNPNPQHQQRDAGMKPGPDVRQIAQETSGEVQYGGGRQPAVLRTFSQRLCRGFNDAVNGFVDDGWSPMGSDGAEDVTVMINLSPGKFGGSQYGNSFLPSFGSGVLCAKASMLLQNVPPAVLVRFLREHRSEWADYGVDAYAAASLRASPFAVPCARAGGFPSNQVILPLAQTVEHEESLEVVRLEGHAYSPEDMGLARDMYLLQLCSGVDENVVGGCAQLVFAPIDESFADDAPLLPSGFRIIPLEQKSTPNGASANRTLDLASALEGSTRQAGEADPNGCNFRSVLTIAFQFTFDNHSRDSVASMARQYVRSIVGSIQRVALAIAPRPGSNISPISVPTSPEALTLVRWISRSYSLHTGADLFGSDSQTSGDTLLHQLWNHSDAILCCSLKTNASPVFTFANQTGLDMLETTLVALQDIMLDKTLDEPGRKALCSEFPKIMQQGYAHLPAGVCASSMGRMVSYEQATVWKVLEDDESNHCLAFMFVNWSFV | 2
